Measurements reported in patent US20180155451A1 (published 2018).

T1: FcγRIIa R (extracellular domain with a His tag at the C terminus) (human, UniProt P12318 34-217)
T1 construct: extracellular domain; expressed in FreeStyle293 cells; also called FcgRIIa R; FcγRIIa type R; not shown: His tag at the C terminus
T1 sequence (looked up): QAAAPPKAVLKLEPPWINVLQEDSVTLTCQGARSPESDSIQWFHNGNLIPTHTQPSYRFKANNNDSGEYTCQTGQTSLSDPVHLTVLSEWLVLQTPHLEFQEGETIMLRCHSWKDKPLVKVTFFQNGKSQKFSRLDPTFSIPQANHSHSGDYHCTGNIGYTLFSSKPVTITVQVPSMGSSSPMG

B1: GpH7-A5/GpH7-B3 variant K326_03V/GpL16-k0 (antibody, human IgG1, kappa)
heavy 1: not shown
heavy 2: not shown
light: DIVMTQSPLSLPVTPGEPASISCQASESLVHSNRNTYLHWYLQKPGQSPQLLIYKVSNRFSGVPDRFSGSGSGTDFTLKISRVEAEDVGVYYCSQNTHVPPTFGQGTKVEIERTVAAPSVFIFPPSDEQLKSGTASVVCLLNNFYPREAKVQWKVDNALQSGNSQESVTEQDSKDSTYSLSSTLTLSKADYEKHKVYACEVTHQGLSSPVTKSFNRGEC
notes: heterodimerized; mutation in one H chain; also called He Ab
B2: GpH7-A5/GpH7-B3 variant K326_04F/GpL16-k0 (antibody, human IgG1, kappa)
heavy 1: not shown
heavy 2: not shown
light: B1 light
notes: as for B1
B3: GpH7-A5/GpH7-B3 variant K326_07I/GpL16-k0 (antibody, human IgG1, kappa)
heavy 1: not shown
heavy 2: not shown
light: B1 light
notes: as for B1
B4: GpH7-A5/GpH7-B3 variant K326_08L/GpL16-k0 (antibody, human IgG1, kappa)
heavy 1: not shown
heavy 2: not shown
light: B1 light
notes: as for B1
B5: GpH7-A5/GpH7-B3 variant K326_15Y/GpL16-k0 (antibody, human IgG1, kappa)
heavy 1: not shown
heavy 2: not shown
light: B1 light
notes: as for B1
B6: GpH7-A5/GpH7-B3 variant K326_20W/GpL16-k0 (antibody, human IgG1, kappa)
heavy 1: not shown
heavy 2: not shown
light: B1 light
notes: as for B1
B7: GpH7-A5/GpH7-B3 variant K334_02A/GpL16-k0 (antibody, human IgG1, kappa)
heavy 1: not shown
heavy 2: not shown
light: B1 light
notes: as for B1
B8: GpH7-A5/GpH7-B3 variant K334_04F/GpL16-k0 (antibody, human IgG1, kappa)
heavy 1: not shown
heavy 2: not shown
light: B1 light
notes: as for B1
B9: GpH7-A5/GpH7-B3 variant K334_05P/GpL16-k0 (antibody, human IgG1, kappa)
heavy 1: not shown
heavy 2: not shown
light: B1 light
notes: as for B1
B10: GpH7-A5/GpH7-B3 variant K334_08L/GpL16-k0 (antibody, human IgG1, kappa)
heavy 1: not shown
heavy 2: not shown
light: B1 light
notes: as for B1
B11: GpH7-A5/GpH7-B3 variant K334_10E/GpL16-k0 (antibody, human IgG1, kappa)
heavy 1: not shown
heavy 2: not shown
light: B1 light
notes: as for B1
B12: GpH7-A5/GpH7-B3 variant K334_13S/GpL16-k0 (antibody, human IgG1, kappa)
heavy 1: not shown
heavy 2: not shown
light: B1 light
notes: as for B1
B13: GpH7-A5/GpH7-B3 variant K334_19Q/GpL16-k0 (antibody, human IgG1, kappa)
heavy 1: not shown
heavy 2: not shown
light: B1 light
notes: as for B1
B14: GpH7-A5/GpH7-B3 variant L235_20W/GpL16-k0 (antibody, human IgG1, kappa)
heavy 1: not shown
heavy 2: not shown
light: B1 light
notes: as for B1
B15: GpH7-A5/GpH7-B3 variant L328_13S/GpL16-k0 (antibody, human IgG1, kappa)
heavy 1: not shown
heavy 2: not shown
light: B1 light
notes: as for B1
B16: GpH7-A5/GpH7-B3 variant L328_14T/GpL16-k0 (antibody, human IgG1, kappa)
heavy 1: not shown
heavy 2: not shown
light: B1 light
notes: as for B1
B17: GpH7-A5/GpH7-B3 variant P238_03V/GpL16-k0 (antibody, human IgG1, kappa)
heavy 1: not shown
heavy 2: not shown
light: B1 light
notes: as for B1
B18: GpH7-A5/GpH7-B3 variant P238_04F/GpL16-k0 (antibody, human IgG1, kappa)
heavy 1: not shown
heavy 2: not shown
light: B1 light
notes: as for B1
B19: GpH7-A5/GpH7-B3 variant P271_08L/GpL16-k0 (antibody, human IgG1, kappa)
heavy 1: not shown
heavy 2: not shown
light: B1 light
notes: as for B1
B20: GpH7-A5/GpH7-B3 variant P331_02A/GpL16-k0 (antibody, human IgG1, kappa)
heavy 1: not shown
heavy 2: not shown
light: B1 light
notes: as for B1
B21: GpH7-A5/GpH7-B3 variant P331_04F/GpL16-k0 (antibody, human IgG1, kappa)
heavy 1: not shown
heavy 2: not shown
light: B1 light
notes: as for B1
B22: GpH7-A5/GpH7-B3 variant P331_15Y/GpL16-k0 (antibody, human IgG1, kappa)
heavy 1: not shown
heavy 2: not shown
light: B1 light
notes: as for B1
B23: GpH7-A5/GpH7-B3 variant P331_16H/GpL16-k0 (antibody, human IgG1, kappa)
heavy 1: not shown
heavy 2: not shown
light: B1 light
notes: as for B1
B24: GpH7-A5/GpH7-B3 variant P331_20W/GpL16-k0 (antibody, human IgG1, kappa)
heavy 1: not shown
heavy 2: not shown
light: B1 light
notes: as for B1
B25: GpH7-A5/GpH7-B3 variant S239_08L/GpL16-k0 (antibody, human IgG1, kappa)
heavy 1: not shown
heavy 2: not shown
light: B1 light
notes: as for B1
B26: GpH7-A5/GpH7-B3 variant S239_10E/GpL16-k0 (antibody, human IgG1, kappa)
heavy 1: not shown
heavy 2: not shown
light: B1 light
notes: as for B1
B27: GpH7-A5/GpH7-B3 variant S239_18N/GpL16-k0 (antibody, human IgG1, kappa)
heavy 1: not shown
heavy 2: not shown
light: B1 light
notes: as for B1
B28: GpH7-A5/GpH7-B3 variant S267_03V/GpL16-k0 (antibody, human IgG1, kappa)
heavy 1: not shown
heavy 2: not shown
light: B1 light
notes: as for B1
B29: GpH7-A5/GpH7-B3 variant S267_06M/GpL16-k0 (antibody, human IgG1, kappa)
heavy 1: not shown
heavy 2: not shown
light: B1 light
notes: as for B1
B30: GpH7-A5/GpH7-B3 variant S267_09D/GpL16-k0 (antibody, human IgG1, kappa)
heavy 1: not shown
heavy 2: not shown
light: B1 light
notes: as for B1

molecular target: T1, FcγRIIa R (extracellular domain with a …); assay: SPR Biacore, relative binding

Binder	He/Con_2aR
B1	141 % of GpH7-A5/GpH7-B3/GpL16-k0 (=100)
B2	135 % of GpH7-A5/GpH7-B3/GpL16-k0 (=100)
B3	147 % of GpH7-A5/GpH7-B3/GpL16-k0 (=100)
B4	137 % of GpH7-A5/GpH7-B3/GpL16-k0 (=100)
B5	136 % of GpH7-A5/GpH7-B3/GpL16-k0 (=100)
B6	131 % of GpH7-A5/GpH7-B3/GpL16-k0 (=100)
B7	105 % of GpH7-A5/GpH7-B3/GpL16-k0 (=100)
B8	110 % of GpH7-A5/GpH7-B3/GpL16-k0 (=100)
B9	103 % of GpH7-A5/GpH7-B3/GpL16-k0 (=100)
B10	106 % of GpH7-A5/GpH7-B3/GpL16-k0 (=100)
B11	106 % of GpH7-A5/GpH7-B3/GpL16-k0 (=100)
B12	109 % of GpH7-A5/GpH7-B3/GpL16-k0 (=100)
B13	109 % of GpH7-A5/GpH7-B3/GpL16-k0 (=100)
B14	131 % of GpH7-A5/GpH7-B3/GpL16-k0 (=100)
B15	117 % of GpH7-A5/GpH7-B3/GpL16-k0 (=100)
B16	119 % of GpH7-A5/GpH7-B3/GpL16-k0 (=100)
B17	120 % of GpH7-A5/GpH7-B3/GpL16-k0 (=100)
B18	174 % of GpH7-A5/GpH7-B3/GpL16-k0 (=100)
B19	104 % of GpH7-A5/GpH7-B3/GpL16-k0 (=100)
B20	106 % of GpH7-A5/GpH7-B3/GpL16-k0 (=100)
B21	111 % of GpH7-A5/GpH7-B3/GpL16-k0 (=100)
B22	112 % of GpH7-A5/GpH7-B3/GpL16-k0 (=100)
B23	114 % of GpH7-A5/GpH7-B3/GpL16-k0 (=100)
B24	110 % of GpH7-A5/GpH7-B3/GpL16-k0 (=100)
B25	122 % of GpH7-A5/GpH7-B3/GpL16-k0 (=100)
B26	135 % of GpH7-A5/GpH7-B3/GpL16-k0 (=100)
B27	111 % of GpH7-A5/GpH7-B3/GpL16-k0 (=100)
B28	116 % of GpH7-A5/GpH7-B3/GpL16-k0 (=100)
B29	122 % of GpH7-A5/GpH7-B3/GpL16-k0 (=100)
B30	173 % of GpH7-A5/GpH7-B3/GpL16-k0 (=100)
